# Source: patent US20130079278A1 (Novo Nordisk, published 2013)
# *1 amine or outer side, *2 acyl side, *3 side chain or, on linkers, in order; H or OH if unused. Where no end group is shown, it is not given here. Side-chain parts run from the residue outwards. The star is where a group is joined. X2 = 4‑(16-(1H-tetrazol-5-yl)hexadecanoylsulfamoyl)butanoyl, O=C(CCCCCCCCCCCCCCCc1nn[nH]n1)NS(=O)(=O)CCCC(=O)*; C18 diacid = O=C(O)CCCCCCCCCCCCCCCCC(=O)*; C16 diacid = O=C(O)CCCCCCCCCCCCCCC(=O)*; γGlu = O=C(O)[C@H](CCC(=O)[*:2])N[*:1]; AEEA = NCCOCCOCC(=O)O
# B1: N^ε24-[(4S)-4-carboxy-4-[[(4S)-4-carboxy-4-[[(4S)-4-carboxy-4-[[(4S)-4-carboxy-4-(17-carboxyheptadecanoylamino)butanoyl]amino]butanoyl]amino]butanoyl]amino]buta … (peptide)
# peptide: HSQGTFTSDVSKYLESRRAQEFVK([γGlu-γGlu-γGlu-γGlu-C18 diacid])WLLST
# B2: N^ε24-[(4S)-4-carboxy-4-[[(4S)-4-carboxy-4-[[2-[2-[2-[[2-[2-[2-[[(4S)-4-carboxy-4-[4-[16-(1H-tetrazol-5-yl)hexadecanoylsulfamoyl]butanoylamino]butanoyl]amino]et … (peptide)
# peptide: HSQGTFTSDYSRYLDLRRAQDFVK([γGlu-γGlu-AEEA-AEEA-γGlu-X2])WLLST
# B3: N^ε24-[(4S)-4-carboxy-4-[[(4S)-4-carboxy-4-[[2-[2-[2-[[2-[2-[2-[[(4S)-4-carboxy-4-(15-carboxypentadecanoylamino)butanoyl]amino]ethoxy]ethoxy]acetyl]amino]ethoxy … (peptide)
# peptide: HSQGTFTSDYSRYLESRRAQEFVK([γGlu-γGlu-AEEA-AEEA-γGlu-C16 diacid])WLLST
# B4: N^ε24-[(4S)-4-carboxy-4-[[(4S)-4-carboxy-4-[[2-[2-[2-[[(4S)-4-carboxy-4-(17-carboxyheptadecanoylamino)butanoyl]amino]ethoxy]ethoxy]acetyl]amino]butanoyl]amino]b … (peptide)
# peptide: HSHGTFTSDYSKYLDSKRAQEFVK([γGlu-γGlu-AEEA-γGlu-C18 diacid])WLLST
# B5: N^ε24-[(4S)-4-carboxy-4-[[2-[2-[2-[[2-[2-[2-[[(4S)-4-carboxy-4-[[(4S)-4-carboxy-4-(17-carboxyheptadecanoylamino)butanoyl]amino]butanoyl]amino]ethoxy]ethoxy]acet … (peptide)
# peptide: HSQGTFTSDVSRYLDTRRAQEFVK([γGlu-AEEA-AEEA-γGlu-γGlu-C18 diacid])WLLST
# B6: N^ε24-[(4S)-4-carboxy-4-[[(4S)-4-carboxy-4-[[2-[2-[2-[[2-[2-[2-[[(4S)-4-carboxy-4-(17-carboxyheptadecanoylamino)butanoyl]amino]ethoxy]ethoxy]acetyl]amino]ethoxy … (peptide)
# peptide: HSQGTFTSDYSRYLESRRAQEFVK([γGlu-γGlu-AEEA-AEEA-γGlu-C18 diacid])WLEST
# B7: N^ε24-[(4S)-4-carboxy-4-[[(4S)-4-carboxy-4-[[2-[2-[2-[[2-[2-[2-[[(4S)-4-carboxy-4-(17-carboxyheptadecanoylamino)butanoyl]amino]ethoxy]ethoxy]acetyl]amino]ethoxy … (peptide)
# peptide: HSQGTFTSDYSRYLDIRRAQEFVK([γGlu-γGlu-AEEA-AEEA-γGlu-C18 diacid])WLEST
# B8: N^ε24-[(4S)-4-carboxy-4-[[(4S)-4-carboxy-4-[[2-[2-[2-[[2-[2-[2-[[(4S)-4-carboxy-4-(15-carboxypentadecanoylamino)butanoyl]amino]ethoxy]ethoxy]acetyl]amino]ethoxy … (peptide)
# peptide: HSQGTFTSDYSRYLESRRAQDFVK([γGlu-γGlu-AEEA-AEEA-γGlu-C16 diacid])WLLST
# B9: N^ε24-[(4S)-4-carboxy-4-[[(4S)-4-carboxy-4-[[(4S)-4-carboxy-4-(15-carboxypentadecanoylamino)butanoyl]amino]butanoyl]amino]butanoyl]-[Arg12,Ala16,Lys24,Leu27,Ser … (peptide)
# peptide: HSQGTFTSDYSRYLDARRAQDFVK([γGlu-γGlu-γGlu-C16 diacid])WLLST
# B10: N^ε24-[(4S)-4-carboxy-4-[[(4S)-4-carboxy-4-[[2-[2-[2-[[2-[2-[2-[[(4S)-4-carboxy-4-(17-carboxyheptadecanoylamino)butanoyl]amino]ethoxy]ethoxy]acetyl]amino]ethoxy … (peptide)
# peptide: HSQGTFTSDYSKYLDVRRAQDFVK([γGlu-γGlu-AEEA-AEEA-γGlu-C18 diacid])WLLNT
# B11: N^ε24-[(4S)-4-carboxy-4-[[(4S)-4-carboxy-4-[[2-[2-[2-[[2-[2-[2-[[(4S)-4-carboxy-4-(17-carboxyheptadecanoylamino)butanoyl]amino]ethoxy]ethoxy]acetyl]amino]ethoxy … (peptide)
# peptide: HSQGTFTSDYSKYLDARRAQDFVK([γGlu-γGlu-AEEA-AEEA-γGlu-C18 diacid])WLEST
# B12: N^ε24-[2-[2-[2-[[2-[2-[2-[[(4S)-4-carboxy-4-[[(4S)-4-carboxy-4-[[(4S)-4-carboxy-4-(17-carboxyheptadecanoylamino)butanoyl]amino]butanoyl]amino]butanoyl]amino]eth … (peptide)
# peptide: HSQGTFTSDVSKYLDTRRAQEFVK([AEEA-AEEA-γGlu-γGlu-γGlu-C18 diacid])WLLST
# B13: N^ε24-[(4S)-4-carboxy-4-[[(4S)-4-carboxy-4-[[2-[2-[2-[[2-[2-[2-[[(4S)-4-carboxy-4-(17-carboxyheptadecanoylamino)butanoyl]amino]ethoxy]ethoxy]acetyl]amino]ethoxy … (peptide)
# peptide: HSQGTFTSDYSKYLESRRAQDFVK([γGlu-γGlu-AEEA-AEEA-γGlu-C18 diacid])WLEST
# B14: N^ε24-[(4S)-4-carboxy-4-[[(4S)-4-carboxy-4-[[2-[2-[2-[[2-[2-[2-[[(4S)-4-carboxy-4-(17-carboxyheptadecanoylamino)butanoyl]amino]ethoxy]ethoxy]acetyl]amino]ethoxy … (peptide)
# peptide: HSQGTFTSDVSRYLESRRAQEFVK([γGlu-γGlu-AEEA-AEEA-γGlu-C18 diacid])WLEST
# B15: N^ε24-[(4S)-4-carboxy-4-[[(4S)-4-carboxy-4-[[2-[2-[2-[[2-[2-[2-[[(4S)-4-carboxy-4-(17-carboxyheptadecanoylamino)butanoyl]amino]ethoxy]ethoxy]acetyl]amino]ethoxy … (peptide)
# peptide: HSQGTFTSDYSKYLESRRAQDFVK([γGlu-γGlu-AEEA-AEEA-γGlu-C18 diacid])WLLQT
# B16: N^ε24-[(4S)-4-carboxy-4-[[(4S)-4-carboxy-4-[[2-[2-[2-[[2-[2-[2-[[(4S)-4-carboxy-4-(15-carboxypentadecanoylamino)butanoyl]amino]ethoxy]ethoxy]acetyl]amino]ethoxy … (peptide)
# peptide: HSQGTFTSDYSKYLESRRAQDFVK([γGlu-γGlu-AEEA-AEEA-γGlu-C16 diacid])WLLST
# Target: glucagon receptor (human, UniProt P47871 26-477)
# Assay: cell-based or functional assay
# Sequence of glucagon receptor (P47871 26-477): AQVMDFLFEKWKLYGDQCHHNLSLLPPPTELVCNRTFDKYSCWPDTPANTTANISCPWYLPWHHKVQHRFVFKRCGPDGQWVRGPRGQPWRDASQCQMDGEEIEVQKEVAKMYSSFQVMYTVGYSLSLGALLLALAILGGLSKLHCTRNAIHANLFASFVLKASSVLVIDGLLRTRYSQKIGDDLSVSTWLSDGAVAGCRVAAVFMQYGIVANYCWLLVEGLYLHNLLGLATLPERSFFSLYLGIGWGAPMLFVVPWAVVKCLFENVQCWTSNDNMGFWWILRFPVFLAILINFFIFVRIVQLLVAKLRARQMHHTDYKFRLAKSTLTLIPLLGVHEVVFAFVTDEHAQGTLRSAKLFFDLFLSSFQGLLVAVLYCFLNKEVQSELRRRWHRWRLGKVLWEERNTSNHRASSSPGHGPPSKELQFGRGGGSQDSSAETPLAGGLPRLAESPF
row,Assay (I) Glucagon [EC50] [nM],Binder
1,0.118,B1
2,0.231,B2
3,0.072,B3
4,0.077,B4
5,0.176,B5
6,1.09,B6
7,0.099,B7
8,0.14,B8
9,0.016,B9
10,0.081,B10
11,0.07,B11
12,0.08,B12
13,0.682,B13
14,1.63,B14
15,0.517,B15
16,0.071,B16
